For one substance, IFN-γ production (ELISA), Pmel-1×Ly108 KO cells with anti-LAG3 compared to Ly108-expressing cells and IFN-γ secretion (ELISA) of Pmel-1 splenocytes activated with anti Lag3 (10 µg/ml), compared to no treatment results are on record in patent US20260151420A1.

In this assay the target is mouse LAG3 on Pmel-1 or Pmel-1xLy108 KO splenocytes (mouse) (UniProt Q61790). As to the kind of experiment: cell-based or functional assay.
Sequence of UniProt Q61790 (Q61790 24-521): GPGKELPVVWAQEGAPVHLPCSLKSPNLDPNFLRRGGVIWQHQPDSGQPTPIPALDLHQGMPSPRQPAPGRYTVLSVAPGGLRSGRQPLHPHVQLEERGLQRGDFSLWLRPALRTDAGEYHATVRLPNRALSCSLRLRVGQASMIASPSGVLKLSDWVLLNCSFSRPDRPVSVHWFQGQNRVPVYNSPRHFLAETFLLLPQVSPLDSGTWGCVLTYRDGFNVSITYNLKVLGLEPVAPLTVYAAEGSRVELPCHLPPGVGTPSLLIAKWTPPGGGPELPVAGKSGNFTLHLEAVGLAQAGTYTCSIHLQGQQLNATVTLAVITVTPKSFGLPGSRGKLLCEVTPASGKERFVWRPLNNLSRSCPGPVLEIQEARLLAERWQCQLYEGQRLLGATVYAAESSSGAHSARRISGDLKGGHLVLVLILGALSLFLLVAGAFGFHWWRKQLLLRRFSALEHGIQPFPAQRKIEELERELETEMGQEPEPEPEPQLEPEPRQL

In turn, “anti-LAG3 blocking antibody (BioXCell, clone: C9B7W, cat: BE0174)” yielded an IFN-γ production (ELISA), Pmel-1×Ly108 KO cells with anti-LAG3 compared to Ly108-expressing cells of 3 fold and an IFN-γ secretion (ELISA) of Pmel-1 splenocytes activated with anti Lag3 (10 µg/ml), compared to no treatment of 1.5 fold.
